# B1: neutrophil elastase (protein, listed as Homo sapiens)
# chain: MTLGRRLACLFLACVLPALLLGGTALASEIVGGRRARPHAWPFMVSLQLRGGHFCGATLIAPNFVMSAAHCVANVNVRAVRVVLGAHNLSRREPTRQVFAVQRIFENGYDPVNLLNDIVILQLNGSATINANVQVAQLPAQGRRLGNGVQCLAMGWGLLGRNRGIASVLQELNVTVVTSLCRRSNVCTLVRGRQAGVCFGDSGSPLVCNGLIHGIASFVRGGCASGLYPDAFAPVAQFVNWIDSIIQRSEDNPCPHPRDPDPASRTH
# notes: purified native ELANE
# Columns and labels:
# [1] = tested on: healthy cells; test: Healthy cell viability, Calcein AM; type: cell-based; conditions: 50 nM, 24 hrs
# Protocol: Human PMN'S broadly and selectively kill cancer cells. Human peripheral blood neutrophils (PMN) were isolated from healthy donors and incubated in serum-free DMEM to collect their secreted factors (PMN-media). (A-B) Human or murine cancer cells (A) or healthy cells (b) were incubated with PMN media or control serum-free DMEM (Ctrl media) for 24 hours. Cell viability was assessed by Calcein AM staining. (C) Human or murine cancer cells were treated with PMN media or Ctrl media for 6 hours. Caspase 3/7 activity was examined by a luminescence activity assay, while cell surface Annexin V staining was assessed by flow cytometry. […] (FIG. 1).
# (FIG. 6A) Cancer cells or healthy cells were treated with 50 nM purified native ELANE or control DMEM media (Ctrl) media for 24 hrs, and cell viability was assessed by Calcein AM staining. (FIG. 6B) Cancer cells were treated with 50 nM ELANE or Ctrl media for 6 hrs, and apoptosis was assessed by Caspase 3/7 luminesce activity assay or cell surface Annexin V staining by flow cytometry. *, p<0.05, Student's t-test.
# [2] = tested on: Cancer cells; test: Killing program signaling in cancer cells (ERK, NFKB, JNK, ROS, H2AX, CASP3, PARP); type: cell-based, Human and mouse; conditions: 50 nM
# Protocol: (FIG. 10A) Cancer cells were treated with ELANE (50 nM) for 4 hrs, and phosphorylated and total ERK, NFKB, and JNK were quantified by western blotting. Immunoblots for E0771 cancer cells are shown as an example. (FIG. 10B) Cancer cells were treated with various doses of ELANE for 1 hr and mitochondrial ROS was measured by flow cytometry using CM-H2DCFDA dye. (FIG. 10C) Cancer cells were treated with ELANE (50 nM) and DNA damage was assessed by immunoblotting for phospho-(γH2AX) and total H2AX. Immunoblots for A549 cancer cells are shown as an example. (FIG. 10D) Cells were treated with ELANE (50 nM) for 8 hrs, and full length and cleaved CASP3 (c-CASP3) and cleaved PARP (c-PARP) were quantified by immunoblotting. Immunoblots for LLC1 cancer cells are shown as an example. *, p<0.05, Student's t-test.
# ELANE induces a robust killing program in a variety of cancer cells. Human and mouse cancer cells were treated with ELANE and signaling pathways associated with cancer cell death were assessed. Cells were treated with ELANE (50 nM) for 4 hrs, and phosphorylated and total ERK, NFKB, and JNK were quantified by western blotting. Cells were treated with various doses of ELANE for 1 hr and mitochondrial ROS was measured by flow cytometry using CM-H2DCFDA dye. Cells were treated with ELANE (50 nM) and DNA damage was assessed by western blot for phospho-(γH2AX) and total H2AX. […]
# [3] = tested on: E0771, B16F10, or LLC1 cancer cells; test: Tumor growth after intratumoral delivery, syngeneic models; type: in vivo, C57BL/6 mice; conditions: 11.6 μg intratumorally once/day for 5 days
# Protocol: ELANE activity is required for its anti-tumor function in vivo. (FIG. 14A) Catalytic activity of ELANE or ELANE that had been inactivated by treatment with 100 nM PMSF (PMSF-ELANE) was determined by a chromogenic substrate. (FIG. 14B) E0771, B16F10, or LLC1 cancer cells were injected into C57BL/6 mice. Once tumors reached ˜100 mm^3, human serum albumin (HSA, 11.6 μg), ELANE (11.6 μg), or PMSF-ELANE (11.6 μg) were delivered intratumorally once/day for 5 days. Tumor volume was assessed by calipers.
# [4] = Side effects in healthy non-tumor-bearing mice; type: in vivo, C57BL/6 mice; conditions: mammary fat pad, once a day for 5 consecutive days
# Protocol: Human serum albumin (HSA; 11.6 μg)) or ELANE (11.6 μg) was injected into the mammary fat pad of healthy non-tumor-bearing C57BL/6 mice once a day for 5 consecutive days, and side effects were monitored. (a) Immunohistochemistry staining for apoptosis markers (TUNEL, cleaved CASP3 (c-CASP3), cleaved PARP (c-PARP)) 2 days after the final injection. (b) Delta body weight. (c) Spleen weight. (c) Blood ALT activity levels (a marker of liver function).
# 4 μM human albumin (Ctrl) or 4 μM ELANE was injected into the mammary fat pad of healthy non-tumor-bearing C57BL/6 mice once a day for 5 consecutive days, and side effects were monitored. Body weight, spleen weight, and blood ALT activity levels (a marker of liver function). Immunohistochemistry staining for apoptosis markers (cleaved CASP3 (c-CASP3), cleaved PARP (c-PARP)) 2 days after the final injection. Quantification of CD8+ effector cytotoxic T-cells (defined as CD3^+CD8^+CD62L^LOCD44^HI) in the blood 2 days after the final injection.
# [5] = tested on: E0771 cancer cells; test: E0771 tumors in Rag2-/- versus wild type mice; type: in vivo, C57BL/6 mice; conditions: 11.6 μg intratumorally once/day for 5 days
# Protocol: The inventors therefore explored whether ELANE-mediated cancer cell killing could positively influence the immune cells in the tumor. Rag2^−/− mice in C57BL/6 background (no adaptive immunity) and wild type (wt) C57BL/6 mice were both ordered from the Jackson laboratory. E0771 cancer cells were injected into both mouse models. Once tumors reached ˜100 mm^3. ELANE (11.6 μg) or HAS (11.6 μg) were delivered intratumorally once/day for 5 days. Tumor volume was assessed by calipers. Kaplan-Meier curve was plotted and the logrank test (Mentel-Cox method) was used for mouse survival analysis. End point of survival is defined as tumor volume >1000 mm^3.
# Adaptive immune cells contribute to ELANE's therapeutic efficacy. Rag2-deficient (Rag2−/−) mice on the C57BL/6 background (no adaptive immunity) and wild type (wt) C57BL/6 mice were injected with E0771 cancer cells. Once tumors reached ˜100 mm^3. ELANE (11.6 μg) or HSA (11.6 μg) were delivered intra-tumorally once/day for 5 days. (FIG. 18A) Tumor volume was assessed by calipers. (FIG. 18B) Kaplan-Meier curve was plotted and the logrank test (Mentel-Cox method) was used for survival analysis. End point of survival is defined as tumor volume >1000 mm^3.
# [6] = tested on: MDA-MB-231 cells; test: ELANE inactivation by PMSF or A1AT and killing assay; type: cell-based, human; conditions: PMSF 100 nM or A1AT 42 nM for 30 mins; 24 hrs
# Protocol: (FIG. 5A) Purified native ELANE or PMN media was treated with PMSF (100 nM) or alpha-1-anti-trypsin (A1AT; 42 nM) for 30 mins and loss of ELANE catalytic activity was confirmed by a chromogenic substrate assay. Killing assays were performed by treating MDA-MB-231 cells for 24 hrs treatment and assessed by Calcein AM staining. (FIG. 5B) ELANE activity in PMN media was measured by a chromogenic substrate activity assay, and PMN killing was measured by Calcein AM staining on MDA-MB-231 cells exposed to PMN media for 4h.
molecule,measurement,setting,value
B1,healthy cell viability,[1],does not kill normal healthy cells
same,killing program in cancer cells,[2],induces a robust killing program in cancer cells
same,tumor growth,[3],slows tumor growth
same,"side effects (body weight, spleen weight, blood ALT, apoptosis markers)",[4],does not produce evident side-effects
same,efficacy in immune competent versus adaptive immunity deficient mice,[5],more efficacious than adaptive immunity deficient mice
same,dependence of cancer cell killing on catalytic activity,[6],catalytic activity is required for its selective cancer cell killing

# — US12564623B2, “Methods and compositions for treating cancer” (The University of Chicago, priority 2017, dated 2026)
